Publication PMC8119676, “Human ribonuclease 1 serves as a secretory ligand of ephrin A4 receptor and induces breast tumor initiation” (Nature Communications, 2021)

Assays:
EphA4 (Homo sapiens) = EphA4 (Homo sapiens) (UniProt P54764); details: cited from earlier work
endogenous EphA4 [1] = target: T1, endogenous EphA4 (human (endogenous in MCF7, BT-549, KPL4), UniProt P54764-1 20-986); experiment: ELISA; saturation binding; EphA4 captured from BT-549 RIPA lysates on plates coated with EphA4 antibody; dilution series of recombinant hRNase 1 or ephrin-A5 in RIPA buffer overnight at 4 °C; biotin-conjugated detection antibodies; Kd estimated, Scatchard plot; details: one partner purified
T1 construct: EphA4 receptor tyrosine kinase, endogenous in human breast cancer cell lines; On cells in the co-IP (ligand added to cells, DSP fixed) and in the PLA; also called ephrin A4 receptor

endogenous EphA4 [2] = target: T1, endogenous EphA4; experiment: cell-based or functional assay

T1 sequence (P54764 20-986): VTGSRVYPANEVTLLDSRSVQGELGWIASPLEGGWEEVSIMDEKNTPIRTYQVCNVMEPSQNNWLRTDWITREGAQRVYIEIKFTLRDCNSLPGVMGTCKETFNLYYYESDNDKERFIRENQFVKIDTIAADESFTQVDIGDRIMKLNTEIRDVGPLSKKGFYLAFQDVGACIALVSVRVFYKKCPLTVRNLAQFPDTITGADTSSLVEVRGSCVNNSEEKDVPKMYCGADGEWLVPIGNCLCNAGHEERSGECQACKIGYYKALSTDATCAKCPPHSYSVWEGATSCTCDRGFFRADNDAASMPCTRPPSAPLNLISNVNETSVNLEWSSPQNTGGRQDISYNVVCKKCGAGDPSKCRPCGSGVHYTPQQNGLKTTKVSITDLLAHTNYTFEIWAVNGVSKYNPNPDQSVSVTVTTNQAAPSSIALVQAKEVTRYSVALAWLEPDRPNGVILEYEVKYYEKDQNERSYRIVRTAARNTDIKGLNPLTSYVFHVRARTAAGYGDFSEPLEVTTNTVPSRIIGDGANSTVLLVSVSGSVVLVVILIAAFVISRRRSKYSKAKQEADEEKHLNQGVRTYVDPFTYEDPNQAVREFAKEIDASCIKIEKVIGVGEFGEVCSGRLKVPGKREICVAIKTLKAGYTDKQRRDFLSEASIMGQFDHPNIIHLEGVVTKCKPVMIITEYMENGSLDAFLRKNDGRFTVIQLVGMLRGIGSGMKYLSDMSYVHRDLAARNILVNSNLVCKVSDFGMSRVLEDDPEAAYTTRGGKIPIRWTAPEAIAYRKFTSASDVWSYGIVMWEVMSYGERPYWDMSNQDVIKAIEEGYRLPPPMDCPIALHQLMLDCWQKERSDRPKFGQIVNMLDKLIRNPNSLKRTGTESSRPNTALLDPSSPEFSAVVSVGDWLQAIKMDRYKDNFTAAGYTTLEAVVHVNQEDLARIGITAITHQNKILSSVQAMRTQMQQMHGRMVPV
Sequence of EphA4 (Homo sapiens) (P54764 20-547): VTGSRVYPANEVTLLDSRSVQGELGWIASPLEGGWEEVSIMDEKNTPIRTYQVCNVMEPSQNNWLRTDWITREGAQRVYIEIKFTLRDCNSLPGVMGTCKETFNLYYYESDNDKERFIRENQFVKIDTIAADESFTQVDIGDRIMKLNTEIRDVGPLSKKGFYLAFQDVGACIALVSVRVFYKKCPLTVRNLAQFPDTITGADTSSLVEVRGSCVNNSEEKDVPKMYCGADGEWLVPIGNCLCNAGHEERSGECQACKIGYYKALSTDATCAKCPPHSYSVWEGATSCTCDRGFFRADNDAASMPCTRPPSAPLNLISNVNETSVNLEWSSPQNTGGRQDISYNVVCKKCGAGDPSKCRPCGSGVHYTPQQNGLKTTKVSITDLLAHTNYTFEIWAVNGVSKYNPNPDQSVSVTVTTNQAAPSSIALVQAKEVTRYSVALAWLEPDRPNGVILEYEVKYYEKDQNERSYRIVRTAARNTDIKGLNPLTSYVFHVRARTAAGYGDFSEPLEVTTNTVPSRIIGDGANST

Ephrin-A5 (from UniProt P52803)
Kd (EphA4 (Homo sapiens)): < 10 nM

B1: recombinant ephrin-A5 (ligand, UniProt P52803 21-203, looked up)
chain: QDPGSKAVADRYAVYWNSSNPRFQRGDYHIDVCINDYLDVFCPHYEDSVPEDKTERYVLYMVNFDGYSACDHTSKGFKRWECNRPHSPNGPLKFSEKFQLFTPFSLGFEFRPGREYFYISSAIPDNGRRSCLKLKVFVRPTNSCMKTIGVHDRVFDVNDKVENSLEPADDTVHESAEPSRGEN
notes: ephrin-A5, recombinant; 5.6 nM is printed as equivalent to 0.15 μg/ml, which implies about 27 kDa
Kd (endogenous EphA4 [1]): 5.6 nM

B2: recombinant hRNase 1 protein purified from HEK293 cells (enzyme, human, UniProt P07998 29-156, looked up)
chain: KESRAKKFQRQHMDSDSSPSSSSTYCNQMMRRRNMTQGRCKPVNTFVHEPLVDVQNVCFQEKVTCKNGQGNCYKSNSSMHITDCRLTNGSRYPNCAYRTSPKERHIIVACEGSPYVPVHFDASVEDST
modifications: N-linked glycosylation, heterogeneous (glycosylated and non-glycosylated bands; sites reported at Asn-34, Asn-76, Asn-88)
notes: human ribonuclease 1 (hRNase 1), bought recombinant protein; The ELISA methods say only 'recombinant hRNase 1'; also called human ribonuclease 1; source: bought: Sino Biological Inc. #13468-H08H, purified from HEK293 cells
EC50 of EphA4 phosphorylation (pY779-EphA4, WB) in BT-549 cells treated with hRNase 1 at various concentrations for 30 min (endogenous EphA4 [2]): 9.85 nM | Kd (endogenous EphA4 [1]): 92.4 nM
